Laboratory results: US20100260668A1 (published 2010)
Values belong to the binder of their own block, whether it stands above or below them.

Columns and labels:
[1] = molecular target: T1, VEGF (VEGF 1-165 aa, R&D Systems 293-VE-010) (UniProt P15692 27-191); assay: Direct bind ELISA, VEGF coated on plate; VEGF domain C-term., HC long/LC long
T1 construct: bought reagent; also called vascular endothelial growth factor

[2] = molecular target: T1, VEGF (VEGF 1-165 aa, R&D Systems …); assay: Direct bind ELISA, VEGF coated on plate; VEGF domain C-term., HC short/LC long
[3] = molecular target: T1, VEGF (VEGF 1-165 aa, R&D Systems …); assay: Direct bind ELISA, VEGF coated on plate; VEGF domain N-term., HC short/LC short
[4] = molecular target: T1, VEGF (VEGF 1-165 aa, R&D Systems …); assay: Direct bind ELISA, VEGF coated on plate; VEGF domain N-term., HC long/LC short
[5] = molecular target: T1, VEGF (VEGF 1-165 aa, R&D Systems …); assay: Direct bind ELISA, VEGF coated on plate; VEGF domain C-term., HC short/LC short
[6] = molecular target: T1, VEGF (VEGF 1-165 aa, R&D Systems …); assay: Direct bind ELISA, VEGF coated on plate; VEGF domain C-term., HC long/LC short

T1 sequence (P15692 other isoform, or with tags, fused parts or gaps limits assumed): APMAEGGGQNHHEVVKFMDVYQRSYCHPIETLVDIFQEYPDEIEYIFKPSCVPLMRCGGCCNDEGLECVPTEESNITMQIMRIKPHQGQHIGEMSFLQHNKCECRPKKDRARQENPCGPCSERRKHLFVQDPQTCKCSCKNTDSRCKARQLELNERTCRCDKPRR

B1: DVD519 (bispecific antibody, human IgG1, kappa, lambda)
heavy: not shown
light: QAVVTQESALTTSPGETVTLTCRSSTGAVTTSNYANWVQEKPDHLFTGLIGGTNNRAPGVPARFSGSLIGDKAALTITGAQTEDEAIYFCALWYSNHWVFGGGTKLTVLGQPKAAPSVTLFPPDIQMTQSPSSLSASVGDRVTITCRASQDVSTAVAWYQQKPGKAPKLLIYSASFLYSGVPSRFSGSGSGTDFTLTISSLQPEDFATYYCQQSYTTPPTFGQGTKVEIKRTVAAPSVFIFPPSDEQLKSGTASVVCLLNNFYPREAKVQWKVDNALQSGNSQESVTEQDSKDSTYSLSSTLTLSKADYEKHKVYACEVTHQGLSSPVTKSFNRGEC
notes: DVD-Ig; N-term; AB073 (DLL4), C-term; AB070 (VEGF); HC linker long, LC linker long; also called DVD-Ig DVD519; DVD519H/DVD519L
EC50 [1]: 77.2 nM

B2: DVD531 (bispecific antibody, human IgG1, kappa, lambda)
heavy: not shown
light: B1 light
notes: DVD-Ig; N-term; AB073 (DLL4), C-term; AB070 (VEGF); HC linker short, LC linker long; also called DVD-Ig DVD531; DVD531H/DVD531L
EC50 [2]: 60.4 nM

EC50 [3]: 6.7 nM
B3: DVD490 (bispecific antibody, human IgG1, kappa)
heavy: not shown
light: DIQMTQSPSSLSASVGDRVTITCRASQDVSTAVAWYQQKPGKAPKLLIYSASFLYSGVPSRFSGSGSGTDFTLTISSLQPEDFATYYCQQSYTTPPTFGQGTKVEIKRTVAAPDIQMTQSSSYLSVSLGGRVTITCKASDHINNWLAWYQQKPGNAPRLLISGATSLETGVPSRFSGSGSGKDYTLSITSLQTEDVATYYCQQYWSIPLTFGAGTKLELKRTVAAPSVFIFPPSDEQLKSGTASVVCLLNNFYPREAKVQWKVDNALQSGNSQESVTEQDSKDSTYSLSSTLTLSKADYEKHKVYACEVTHQGLSSPVTKSFNRGEC
notes: DVD-Ig; N-term; AB070 (VEGF), C-term; AB072 (DLL4); HC linker short, LC linker short; also called DVD-Ig DVD490; DVD490H/DVD490L

EC50 [4]: 3.25 nM
B4: DVD502 (bispecific antibody, human IgG1, kappa)
heavy: not shown
light: B3 light
notes: DVD-Ig; N-term; AB070 (VEGF), C-term; AB072 (DLL4); HC linker long, LC linker short; also called DVD-Ig DVD502; DVD502H/DVD502L

EC50 [3]: 8.42 nM
B5: DVD492 (bispecific antibody, human IgG1, kappa)
heavy: not shown
light: DIQMTQSPSSLSASVGDRVTITCRASQVIRRSLAWYQQKPGKAPKLLIYAASNLASGVPSRFSGSGSGTDFTLTISSLQPEDFATYYCQQSNTSPLTFGQGTKVEIKRTVAAPDIQMTQSSSYLSVSLGGRVTITCKASDHINNWLAWYQQKPGNAPRLLISGATSLETGVPSRFSGSGSGKDYTLSITSLQTEDVATYYCQQYWSIPLTFGAGTKLELKRTVAAPSVFIFPPSDEQLKSGTASVVCLLNNFYPREAKVQWKVDNALQSGNSQESVTEQDSKDSTYSLSSTLTLSKADYEKHKVYACEVTHQGLSSPVTKSFNRGEC
notes: DVD-Ig; N-term; AB071 (VEGF), C-term; AB072 (DLL4); HC linker short, LC linker short; also called DVD-Ig DVD492; DVD492H/DVD492L

EC50 [4]: 16.7 nM
B6: DVD504 (bispecific antibody, human IgG1, kappa)
heavy: not shown
light: B5 light
notes: DVD-Ig; N-term; AB071 (VEGF), C-term; AB072 (DLL4); HC linker long, LC linker short; also called DVD-Ig DVD504; DVD504H/DVD504L

EC50 [5]: 1250 nM
B7: DVD491 (bispecific antibody, human IgG1, kappa)
heavy: not shown
light: DIQMTQSSSYLSVSLGGRVTITCKASDHINNWLAWYQQKPGNAPRLLISGATSLETGVPSRFSGSGSGKDYTLSITSLQTEDVATYYCQQYWSIPLTFGAGTKLELKRTVAAPDIQMTQSPSSLSASVGDRVTITCRASQVIRRSLAWYQQKPGKAPKLLIYAASNLASGVPSRFSGSGSGTDFTLTISSLQPEDFATYYCQQSNTSPLTFGQGTKVEIKRTVAAPSVFIFPPSDEQLKSGTASVVCLLNNFYPREAKVQWKVDNALQSGNSQESVTEQDSKDSTYSLSSTLTLSKADYEKHKVYACEVTHQGLSSPVTKSFNRGEC
notes: DVD-Ig; N-term; AB072 (DLL4), C-term; AB071 (VEGF); HC linker short, LC linker short; also called DVD-Ig DVD491; DVD491H/DVD491L

EC50 [6]: 430 nM
B8: DVD503 (bispecific antibody, human IgG1, kappa)
heavy: not shown
light: B7 light
notes: DVD-Ig; N-term; AB072 (DLL4), C-term; AB071 (VEGF); HC linker long, LC linker short; also called DVD-Ig DVD503; DVD503H/DVD503L

EC50 [3]: 67.4 nM
B9: DVD514 (bispecific antibody, human IgG1, lambda)
heavy: not shown
light: DIQMTQSPSSLSASVGDRVTITCRASQDVSTAVAWYQQKPGKAPKLLIYSASFLYSGVPSRFSGSGSGTDFTLTISSLQPEDFATYYCQQSYTTPPTFGQGTKVEIKRTVAAPQAVVTQESALTTSPGETVTLTCRSSTGAVTTSNYANWVQEKPDHLFTGLIGGTNNRAPGVPARFSGSLIGDKAALTITGAQTEDEAIYFCALWYSNHWVFGGGTKLTVLGQPKAAPSVTLFPPSSEELQANKATLVCLISDFYPGAVTVAWKADSSPVKAGVETTTPSKQSNNKYAASSYLSLTPEQWKSHRSYSCQVTHEGSTVEKTVAPTECS
notes: DVD-Ig; N-term; AB070 (VEGF), C-term; AB073 (DLL4); HC linker short, LC linker short; also called DVD-Ig DVD514; DVD514H/DVD514L

EC50 [4]: 96.2 nM
B10: DVD526 (bispecific antibody, human IgG1, lambda)
heavy: not shown
light: B9 light
notes: DVD-Ig; N-term; AB070 (VEGF), C-term; AB073 (DLL4); HC linker long, LC linker short; also called DVD-Ig DVD526; DVD526H/DVD526L

B11: DVD497 (bispecific antibody, human IgG1, kappa)
heavy: not shown
light: DIQMTQSSSYLSVSLGGRVTITCKASDHINNWLAWYQQKPGNAPRLLISGATSLETGVPSRFSGSGSGKDYTLSITSLQTEDVATYYCQQYWSIPLTFGAGTKLELKRTVAAPSVFIFPPDIQMTQSPSSLSASVGDRVTITCRASQVIRRSLAWYQQKPGKAPKLLIYAASNLASGVPSRFSGSGSGTDFTLTISSLQPEDFATYYCQQSNTSPLTFGQGTKVEIKRTVAAPSVFIFPPSDEQLKSGTASVVCLLNNFYPREAKVQWKVDNALQSGNSQESVTEQDSKDSTYSLSSTLTLSKADYEKHKVYACEVTHQGLSSPVTKSFNRGEC
notes: DVD-Ig; N-term; AB072 (DLL4), C-term; AB071 (VEGF); HC linker long, LC linker long; also called DVD-Ig DVD497; DVD497H/DVD497L
EC50 [1]: 858 nM

EC50 [5]: 181 nM
B12: DVD489 (bispecific antibody, human IgG1, kappa, L234A L235A)
heavy: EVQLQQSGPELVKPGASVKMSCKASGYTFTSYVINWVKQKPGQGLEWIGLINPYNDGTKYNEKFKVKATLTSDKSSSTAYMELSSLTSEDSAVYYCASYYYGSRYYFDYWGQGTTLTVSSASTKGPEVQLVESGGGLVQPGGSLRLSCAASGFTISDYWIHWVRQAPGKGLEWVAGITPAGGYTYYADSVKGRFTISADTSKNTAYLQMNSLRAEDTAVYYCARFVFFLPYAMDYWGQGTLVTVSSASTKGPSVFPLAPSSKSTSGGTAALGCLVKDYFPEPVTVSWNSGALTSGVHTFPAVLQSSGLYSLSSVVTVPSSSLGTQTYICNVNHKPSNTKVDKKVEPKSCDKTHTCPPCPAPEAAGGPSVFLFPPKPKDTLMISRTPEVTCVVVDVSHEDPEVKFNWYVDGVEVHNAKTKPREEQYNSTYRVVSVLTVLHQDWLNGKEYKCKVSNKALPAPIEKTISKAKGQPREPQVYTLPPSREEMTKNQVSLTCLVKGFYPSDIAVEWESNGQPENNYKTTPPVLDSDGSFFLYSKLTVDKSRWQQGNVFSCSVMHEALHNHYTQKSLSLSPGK
light: DIQMTQSSSYLSVSLGGRVTITCKASDHINNWLAWYQQKPGNAPRLLISGATSLETGVPSRFSGSGSGKDYTLSITSLQTEDVATYYCQQYWSIPLTFGAGTKLELKRTVAAPDIQMTQSPSSLSASVGDRVTITCRASQDVSTAVAWYQQKPGKAPKLLIYSASFLYSGVPSRFSGSGSGTDFTLTISSLQPEDFATYYCQQSYTTPPTFGQGTKVEIKRTVAAPSVFIFPPSDEQLKSGTASVVCLLNNFYPREAKVQWKVDNALQSGNSQESVTEQDSKDSTYSLSSTLTLSKADYEKHKVYACEVTHQGLSSPVTKSFNRGEC
notes: DVD-Ig; N-term; AB072 (DLL4), C-term; AB070 (VEGF); HC linker short, LC linker short; also called DVD-Ig DVD489; DVD489H/DVD489L

EC50 [6]: 45.2 nM
B13: DVD501 (bispecific antibody, human IgG1, kappa)
heavy: not shown
light: B12 light
notes: DVD-Ig; N-term; AB072 (DLL4), C-term; AB070 (VEGF); HC linker long, LC linker short; also called DVD-Ig DVD501; DVD501H/DVD501L

EC50 [6]: 21.8 nM
B14: DVD525 (bispecific antibody, human IgG1, kappa)
heavy: not shown
light: QAVVTQESALTTSPGETVTLTCRSSTGAVTTSNYANWVQEKPDHLFTGLIGGTNNRAPGVPARFSGSLIGDKAALTITGAQTEDEAIYFCALWYSNHWVFGGGTKLTVLGQPKAAPDIQMTQSPSSLSASVGDRVTITCRASQDVSTAVAWYQQKPGKAPKLLIYSASFLYSGVPSRFSGSGSGTDFTLTISSLQPEDFATYYCQQSYTTPPTFGQGTKVEIKRTVAAPSVFIFPPSDEQLKSGTASVVCLLNNFYPREAKVQWKVDNALQSGNSQESVTEQDSKDSTYSLSSTLTLSKADYEKHKVYACEVTHQGLSSPVTKSFNRGEC
notes: DVD-Ig; N-term; AB073 (DLL4), C-term; AB070 (VEGF); HC linker long, LC linker short; also called DVD-Ig DVD525; DVD525H/DVD525L

B15: DVD495 (bispecific antibody, human IgG1, kappa)
heavy: not shown
light: DIQMTQSSSYLSVSLGGRVTITCKASDHINNWLAWYQQKPGNAPRLLISGATSLETGVPSRFSGSGSGKDYTLSITSLQTEDVATYYCQQYWSIPLTFGAGTKLELKRTVAAPSVFIFPPDIQMTQSPSSLSASVGDRVTITCRASQDVSTAVAWYQQKPGKAPKLLIYSASFLYSGVPSRFSGSGSGTDFTLTISSLQPEDFATYYCQQSYTTPPTFGQGTKVEIKRTVAAPSVFIFPPSDEQLKSGTASVVCLLNNFYPREAKVQWKVDNALQSGNSQESVTEQDSKDSTYSLSSTLTLSKADYEKHKVYACEVTHQGLSSPVTKSFNRGEC
notes: DVD-Ig; N-term; AB072 (DLL4), C-term; AB070 (VEGF); HC linker long, LC linker long; also called DVD-Ig DVD495; DVD495H/DVD495L
EC50 [1]: 70 nM
